{"source": "paper PMC7375812", "about": "“Molecular determinants of large cargo transport into the nucleus” (eLife, 2020)", "molecular_target": "the molecule itself", "test": "negative-stain electron microscopy; purified (and labelled) capsids adsorbed on glow-discharged carbon-coated grids, 2% uranyl acetate", "data": [{"protein": "MS2^S37P capsid (bacteriophage MS2 coat protein with S37P and T15C) (natural protein, the introduced cysteine (T15C) coupled by maleimide to Alexa Fluor 647 or to the NLS peptide Mal-…, in a share of the copies each, coat protein of bacteriophage MS2; The NLS peptide is a branch on the cysteine, not part of the chain; source: E. coli BL21 AI, purified (PEI, ammonium sulphate, tangential flow, size exclusion after labelling); copies: 60) MASNFTQFVLVDNGGCGDVTVAPSNFANGVAEWISSNPRSQAYKVTCSVRQSSAQNRKYTIKVEVPKVATQTVGGVELPVAAWRSYLNMELTIPIFATNSDCELIVKAMQGLLKDGNPIPSAIAANSGIY", "values": [{"measurement": "binding result", "result": "binds"}]}, {"protein": "MS2 capsid (wild-type bacteriophage MS2 coat protein with T15C) (natural protein, the introduced cysteine (T15C) coupled by maleimide to Alexa Fluor 647 or to the NLS peptide Mal-…, in a share of the copies each, coat protein of bacteriophage MS2; The NLS peptide is a branch on the cysteine, not part of the chain; source: E. coli BL21 AI, purified (PEI, ammonium sulphate, tangential flow, size exclusion after labelling); copies: 180) MASNFTQFVLVDNGGCGDVTVAPSNFANGVAEWISSNSRSQAYKVTCSVRQSSAQNRKYTIKVEVPKVATQTVGGVELPVAAWRSYLNMELTIPIFATNSDCELIVKAMQGLLKDGNPIPSAIAANSGIY", "values": [{"measurement": "binding result", "result": "binds"}]}]}
